Data published in patent publication US20130052177.

Legend:
[1] = tested on: Flavo-KRS (monomeric full-length KRS with E. coli flavodoxin inserted at G310) (Homo sapiens / Escherichia coli fusion); assay: EMSA; settings: affinity from percent free tRNA; slightly weaker than native KRS; 0.1 uM tRNA; 20 mM HEPES pH 7.5, 20 mM KCl, 5 mM MgCl2, 2 mM DTT, on ice
[2] = target: KRS (lysyl-tRNA synthetase, full-length 1-597) (Homo sapiens) (UniProt Q15046); assay: EMSA; settings: affinity from percent free tRNA; 0.1 uM tRNA; 20 mM HEPES pH 7.5, 20 mM KCl, 5 mM MgCl2, 2 mM DTT, on ice
KRS (lysyl-tRNA synthetase, full-length 1-597) (Homo sapiens), sequence (Q15046 whole entry): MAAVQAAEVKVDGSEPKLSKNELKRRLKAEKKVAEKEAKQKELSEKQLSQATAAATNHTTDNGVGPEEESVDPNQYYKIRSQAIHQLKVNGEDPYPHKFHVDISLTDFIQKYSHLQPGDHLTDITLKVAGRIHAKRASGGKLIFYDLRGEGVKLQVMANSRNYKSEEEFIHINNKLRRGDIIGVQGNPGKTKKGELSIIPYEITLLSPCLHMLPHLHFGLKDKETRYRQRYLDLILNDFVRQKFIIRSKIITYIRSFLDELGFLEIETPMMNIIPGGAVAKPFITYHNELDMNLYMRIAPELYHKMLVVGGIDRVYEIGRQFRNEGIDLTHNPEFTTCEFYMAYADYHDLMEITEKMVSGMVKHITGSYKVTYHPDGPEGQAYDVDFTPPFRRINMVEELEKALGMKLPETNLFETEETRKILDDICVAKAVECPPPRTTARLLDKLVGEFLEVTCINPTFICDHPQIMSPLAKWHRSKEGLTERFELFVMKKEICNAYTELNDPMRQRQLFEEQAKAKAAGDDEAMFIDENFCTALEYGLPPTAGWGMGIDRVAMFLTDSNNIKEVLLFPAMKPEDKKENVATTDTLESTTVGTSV

Substance: human tRNALys3 (in vitro transcript)
- Kd [1]: 1210 nM
- Kd [2]: 870 nM
